For test [1], the target named is double His-tagged RAD-TPX2_((7–43)) D11A (Pyrococcus furiosus | human) (UniProt O74036). The test can be described thus: BLI; Octet RED96, Anti-Penta-HIS biosensors loaded with double His-tagged RAD-TPX2 proteins (1 μM), untagged Aurora A wild type 0-500 or 5000 nM as analyte; 50 mM HEPES pH 7.4, 500 mM NaCl, 100 mM Mg(CH3COO)2, 0.5 mM ATP, 0.5 mM TCEP, 0.05% P20; 1:1 model.

Test [2] addresses double His-tagged RAD-TPX2_((7–43)) F16A (Pyrococcus furiosus | human) (UniProt O74036). The test is described as above.
Test [3] concerns the target double His-tagged RAD-TPX2_((7–43)) F19A (Pyrococcus furiosus | human) (UniProt O74036). The description is as above.
Test [4] concerns the target double His-tagged RAD-TPX2_((7–43)) F35A (Pyrococcus furiosus | human) (UniProt O74036). The test is described as above.
For test [5], the target named is double His-tagged RAD-TPX2_((7–43)) W34A (Pyrococcus furiosus | human) (UniProt O74036). The test is described as above.
The target of test [6] is double His-tagged RAD-TPX2_((7–43)) Y10A (Pyrococcus furiosus | human) (UniProt O74036). The test is described as above.
The target of test [7] is double His-tagged RAD-TPX2_((7–43)) Y8A (Pyrococcus furiosus | human) (UniProt O74036). Described as above.
Test [8] has as its target double His-tagged RAD-TPX2_((7–43)), wild-type TPX2 sequence (Pyrococcus furiosus | human) (UniProt O74036). The description is as above.
Test [9] has as its target Alexa Fluor 488-labeled cRAD-CK2β_((186–200)) (Pyrococcus furiosus | human) (UniProt O74036). The test can be described thus: fluorescence polarisation; fluorescence anisotropy, direct titration of kinase (CK2α 2 nM-2 μM; Aurora A D274N 2 nM-1.5 μM) into labelled peptide or display protein; 10 mM HEPES pH 7.4, 500 mM NaCl, 1 mM DTT, 0.05% P20; room temperature; 1:1 model. (In general: Polarisation of emitted light reports the rotation of a fluorescent probe.)

The target in test [10] is Fluorescein-CK2β_((186–200)) peptide (human) (UniProt P67870). The test is described as above.
Test [11] addresses synthetic linear CK2β_((186–200)) peptide with C-terminal Gly-Cys (human) (UniProt P67870). The test can be described thus: SPR; Biacore T100, CM5, peptides or cRAD display proteins immobilised through their cysteine (240-400 RU), kinase as analyte 2.5 nM-2.5 μM, 25°C, 10 mM HEPES pH 7.4, 500 mM NaCl, 0.05% P20; 1:1 steady-state affinity model; CK2α data analysed at 200 s post-injection. (In general: SPR reads the build-up and loss of mass on a sensor chip optically.)

Test [12] addresses CK2α kinase (human) (UniProt P68400). The test can be described thus: SEC; analytical Superdex 75 5/150, 20 mM HEPES pH 7.5, 500 mM NaCl; single proteins and equimolar mixture; fractions checked by SDS-PAGE.
Test [13] shares this target. The test can be described thus: AUC; sedimentation velocity, absorbance at 280 nm, 50 000 rpm, 20°C, 20 mM HEPES pH 7.5, 500 mM NaCl; single proteins and mixtures (5 μM each CK2α and RAD-CK2β; 10 μM each Aurora A D274N and RAD-TPX2).
For test [14] the target is unchanged. The test can be described thus: ITC; itc200, 25°C, 10 mM HEPES pH 7.4, 500 mM NaCl, 0.05% P20; 50 μM titrant into 5 μM Aurora A D274N, 100 μM CK2β peptide or RAD-CK2β into 10 μM CK2α; single-site model. On the technique in general: In ITC the heat of successive injections is recorded.
The target of test [15] is Aurora A_(D274N) kinase domain (human) (UniProt O14965). Described as above.
For test [16], the target named is Aurora A wild-type kinase domain (untagged) (human). The test can be described thus: fluorescence polarisation; fluorescence anisotropy competition: 10 nM Alexa Fluor 488-TPX2 peptide and 50 nM Aurora A wild type, RAD-TPX2 variants as competitors 195 nM-25 μM, 25°C, HEPES pH 7.4, 0.1 M Mg(CH3COO)2, 100 mM NaCl, 1 mM ATP, 1 mM DTT, 0.01% P20; Ki from the equation of Wang (1995), given as KD in Table II.

These results are taken from paper PMC5897841, “Development of a multipurpose scaffold for the display of peptide loops” (Protein Engineering, Design and Selection, 2017).

pKd: −log10 of the molar value.

Chain of CK2α kinase (human) (P68400 2-329): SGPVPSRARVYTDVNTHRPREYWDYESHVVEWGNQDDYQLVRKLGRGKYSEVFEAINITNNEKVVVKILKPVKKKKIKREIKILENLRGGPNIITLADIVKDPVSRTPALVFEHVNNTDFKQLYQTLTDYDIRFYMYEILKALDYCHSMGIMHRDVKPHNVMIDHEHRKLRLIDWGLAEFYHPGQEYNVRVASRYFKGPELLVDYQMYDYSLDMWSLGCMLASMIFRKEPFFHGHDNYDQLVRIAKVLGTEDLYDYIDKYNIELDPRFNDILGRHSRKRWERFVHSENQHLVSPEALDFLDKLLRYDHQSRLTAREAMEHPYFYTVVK
Chain of CK2α kinase (P68400 2-329): as above
Chain of Aurora A wild-type kinase domain (untagged) (human) (O14965 133-383): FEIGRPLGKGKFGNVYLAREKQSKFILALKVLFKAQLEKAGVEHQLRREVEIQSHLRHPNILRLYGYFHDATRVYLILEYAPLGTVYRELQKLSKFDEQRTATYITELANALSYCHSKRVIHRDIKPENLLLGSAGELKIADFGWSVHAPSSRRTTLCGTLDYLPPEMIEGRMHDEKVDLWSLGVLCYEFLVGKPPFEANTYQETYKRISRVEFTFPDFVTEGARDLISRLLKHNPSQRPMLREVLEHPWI
Chain of Aurora A_(D274N) kinase domain (human) (O14965 122-403 D274N): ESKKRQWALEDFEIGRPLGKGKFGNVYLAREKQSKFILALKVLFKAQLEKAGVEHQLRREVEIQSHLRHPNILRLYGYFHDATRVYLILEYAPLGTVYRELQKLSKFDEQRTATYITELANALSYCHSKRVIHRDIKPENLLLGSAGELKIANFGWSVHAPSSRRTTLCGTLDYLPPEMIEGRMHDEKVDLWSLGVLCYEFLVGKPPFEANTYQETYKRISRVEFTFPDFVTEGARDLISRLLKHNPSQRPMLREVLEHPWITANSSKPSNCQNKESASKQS

As for “Aurora A wild-type kinase domain (untagged) (domain or fragment)”, the pKd was 5.96 in test [1]; 6.09 in [2]; 6.06 in test [3]; 5.96 in test [4]; 6.08 in [5]; 4.96 in [6]. The negative logarithm of the Kd (pKd) in test [7] is 5.55; in test [8], 7.34.
Regarding “CK2α kinase (from UniProt P68400 2-329) (enzyme)”, the pKd is 6.86 in [9], 6.46 in test [10] and 6.39 in test [11].
In the case of “RAD-CK2β_((186–200)) display protein (as used in AUC and SEC) (from UniProt O74036 108-287; P67870 186-200; O74036 302-349)”, the stoichiometry N with CK2α kinase (human) [12] and in the test with CK2α kinase (human) [13] was 1 in each case.
Consider “cRAD-CK2β_((186–200)) display protein (from UniProt O74036 108-287; P67870 186-200; O74036 302-349)”, for which the pKd in the test with CK2α kinase (human) [14] is 6.85.
“cRAD-TPX2_((7–43)) display protein (from UniProt O74036 108-287; O74036 302-349)” had a pKd in test [15] of 6.83.
Turning to “double His-tagged RAD-TPX2_((7–43)) D11A (from UniProt O74036 108-287; Q9ULW0 7-43; O74036 302-349)”, the pKd in test [16] is less than 5.49.
For the substance “double His-tagged RAD-TPX2_((7–43)) F16A (from UniProt O74036 108-287; Q9ULW0 7-43; O74036 302-349)”, the pKd in test [16] is 6.52.
Substance “double His-tagged RAD-TPX2_((7–43)) F19A (from UniProt O74036 108-287; Q9ULW0 7-43; O74036 302-349)” gave a negative-log Kd (pKd) in [16] of 5.75.
Substance “double His-tagged RAD-TPX2_((7–43)) F35A (from UniProt O74036 108-287; Q9ULW0 7-43; O74036 302-349)” gave a pKd in [16] of 5.95. This pKd lies 0.20 log units higher than the previous one.
The same measure, in the same setting: the result for “double His-tagged RAD-TPX2_((7–43)) W34A (from UniProt O74036 108-287; Q9ULW0 7-43; O74036 302-349)” reads 5.93; that for “double His-tagged RAD-TPX2_((7–43)) Y8A (from UniProt O74036 108-287; Q9ULW0 7-43; O74036 302-349)”, less than 5.49; that for “double His-tagged RAD-TPX2_((7–43)) Y10A (from UniProt O74036 108-287; Q9ULW0 7-43; O74036 302-349)”, less than 5.49.
Take “double His-tagged RAD-TPX2_((7–43)), wild-type TPX2 sequence (from UniProt O74036 108-287; O74036 302-349)”: the pKd in test [16] is 8.70.
Substance “synthetic linear CK2β_((186–200)) peptide (from UniProt P67870 186-200)” gave a pKd in the test with CK2α kinase (human) [14] of 6.86.

A word on the pKd: it is −log10 of the Kd, conventionally taken in molar units. Read a low pKd as a large Kd. A word on the stoichiometry N: it is the number of molecules, sites or subunits per partner or assembly.
